# Like-named read-outs stand apart in the source and are kept apart here.
# Key:
# PCNA (Homo sapiens) [1] = molecular target: PCNA (Homo sapiens) (UniProt P12004); details: cited from earlier work
# PCNA (Homo sapiens) [2] = molecular target: PCNA (Homo sapiens) (UniProt P12004); details: cited from earlier work; remark: listed apart in the source
# [3] = molecular target: the molecule itself; experiment: native gel or EMSA; 12% native PAGE, 80 V for 5 h at 4°C, 25 mM Tris base, 192 mM glycine, pH 8.8, Coomassie staining; migration compared with carbonic anhydrase or with the mutant
# [4] = molecular target: T1, human PCNA, wild type, purified (human, UniProt P12004 1-261); experiment: ITC; p12 (10 μM) in the cell, PCNA (120 μM) in the syringe, 25°C, 20 mM Hepes pH 7.4, 150 mM NaCl, single-site model; p12 taken as a dimer and PCNA as a trimer; details: both partners purified
# T1 construct: Proliferating cell nuclear antigen, human; amplified from cDNA of HeLa total RNA; Treated as a trimer in the ITC analysis; also called hPCNA; proliferating cell nuclear antigen; source: E. coli BL21 DE3, purified (expressed as GST fusion, glutathione-sepharose)
# [5] = molecular target: the molecule itself; experiment: cross-linking; 1-5 μg of protein in 20 mM Hepes pH 7.5, 0.5% formaldehyde, 30 min at 25°C, 12% SDS-PAGE, Coomassie
# [6] = molecular target: the molecule itself; experiment: ITC; p12 (10 μM) in the cell, p12 (120 μM) in the syringe, 30°C, 20 mM Hepes pH 7.4, 150 mM NaCl, single-site model; dimer to monomers
# Sequence of PCNA (Homo sapiens) (P12004 whole entry): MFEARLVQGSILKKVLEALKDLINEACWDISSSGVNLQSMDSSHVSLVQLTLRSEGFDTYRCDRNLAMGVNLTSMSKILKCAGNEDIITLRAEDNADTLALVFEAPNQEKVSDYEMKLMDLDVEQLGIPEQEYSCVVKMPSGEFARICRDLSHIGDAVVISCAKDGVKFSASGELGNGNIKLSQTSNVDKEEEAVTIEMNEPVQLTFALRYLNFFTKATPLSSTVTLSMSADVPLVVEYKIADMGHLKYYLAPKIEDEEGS
# T1 sequence (P12004 whole entry, the tested form may be a part): as the sequence (P12004 whole entry) above
# Sequence of DNA polymerase delta holoenzyme (P28340 whole entry, stated change not applied): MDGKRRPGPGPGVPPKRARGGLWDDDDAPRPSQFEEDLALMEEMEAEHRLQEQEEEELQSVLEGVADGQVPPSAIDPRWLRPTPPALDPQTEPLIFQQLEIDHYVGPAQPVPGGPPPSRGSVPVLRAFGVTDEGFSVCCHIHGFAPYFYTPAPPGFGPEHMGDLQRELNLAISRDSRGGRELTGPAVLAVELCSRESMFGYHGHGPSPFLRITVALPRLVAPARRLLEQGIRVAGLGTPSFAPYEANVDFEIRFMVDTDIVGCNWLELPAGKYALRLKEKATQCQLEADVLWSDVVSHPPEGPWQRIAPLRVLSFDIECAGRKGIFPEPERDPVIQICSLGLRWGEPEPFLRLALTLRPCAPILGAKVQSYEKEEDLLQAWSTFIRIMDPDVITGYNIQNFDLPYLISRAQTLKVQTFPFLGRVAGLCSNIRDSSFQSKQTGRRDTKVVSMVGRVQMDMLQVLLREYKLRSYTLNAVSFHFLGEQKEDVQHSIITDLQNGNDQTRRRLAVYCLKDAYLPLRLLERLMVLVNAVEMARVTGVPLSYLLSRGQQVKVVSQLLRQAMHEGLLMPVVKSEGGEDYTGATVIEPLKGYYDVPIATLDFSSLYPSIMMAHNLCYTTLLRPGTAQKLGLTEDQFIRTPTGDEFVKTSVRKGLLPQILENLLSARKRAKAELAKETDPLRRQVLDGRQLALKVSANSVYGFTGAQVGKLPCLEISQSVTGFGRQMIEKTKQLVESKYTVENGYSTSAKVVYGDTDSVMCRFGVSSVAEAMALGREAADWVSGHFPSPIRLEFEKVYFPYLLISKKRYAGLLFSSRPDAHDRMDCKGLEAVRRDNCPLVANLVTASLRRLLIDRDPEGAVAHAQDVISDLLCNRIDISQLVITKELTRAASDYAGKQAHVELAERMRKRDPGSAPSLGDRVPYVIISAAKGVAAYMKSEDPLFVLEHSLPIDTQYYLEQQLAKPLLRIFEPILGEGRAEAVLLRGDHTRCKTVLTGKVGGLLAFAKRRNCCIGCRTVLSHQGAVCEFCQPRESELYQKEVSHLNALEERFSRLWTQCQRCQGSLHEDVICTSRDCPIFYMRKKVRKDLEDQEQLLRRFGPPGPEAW
# Sequence of DNA polymerase delta holoenzyme (P49005 whole entry, stated change not applied, further chain): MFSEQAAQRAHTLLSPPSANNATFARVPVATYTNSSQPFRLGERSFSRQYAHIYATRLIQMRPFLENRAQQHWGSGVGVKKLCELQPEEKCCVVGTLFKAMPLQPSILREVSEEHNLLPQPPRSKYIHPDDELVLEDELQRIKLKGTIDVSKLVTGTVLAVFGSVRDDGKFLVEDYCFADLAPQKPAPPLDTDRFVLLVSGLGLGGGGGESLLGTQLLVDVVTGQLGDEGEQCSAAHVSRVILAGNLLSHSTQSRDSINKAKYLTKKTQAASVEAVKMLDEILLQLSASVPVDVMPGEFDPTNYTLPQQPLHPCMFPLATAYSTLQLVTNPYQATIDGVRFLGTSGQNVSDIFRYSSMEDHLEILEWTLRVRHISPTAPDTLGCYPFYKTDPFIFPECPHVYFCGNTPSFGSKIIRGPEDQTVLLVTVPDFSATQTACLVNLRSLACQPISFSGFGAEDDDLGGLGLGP
# Sequence of DNA polymerase delta holoenzyme (Q15054 2-466, stated change not applied, further chain): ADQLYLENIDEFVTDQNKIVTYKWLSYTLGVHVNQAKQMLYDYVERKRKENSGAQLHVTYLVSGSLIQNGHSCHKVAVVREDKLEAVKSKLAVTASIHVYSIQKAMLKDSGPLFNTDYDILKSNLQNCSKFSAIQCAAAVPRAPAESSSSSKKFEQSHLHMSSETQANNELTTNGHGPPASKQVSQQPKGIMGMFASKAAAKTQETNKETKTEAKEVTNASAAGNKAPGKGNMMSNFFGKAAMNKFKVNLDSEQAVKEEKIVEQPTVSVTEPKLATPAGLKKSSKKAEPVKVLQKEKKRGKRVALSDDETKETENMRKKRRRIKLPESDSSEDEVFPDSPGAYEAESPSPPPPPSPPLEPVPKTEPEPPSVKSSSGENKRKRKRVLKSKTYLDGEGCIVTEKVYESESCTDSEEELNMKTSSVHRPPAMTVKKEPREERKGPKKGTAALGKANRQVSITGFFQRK
# Sequence of DNA polymerase delta core (P28340 whole entry, stated change not applied): as the sequence (P28340 whole entry, stated change not applied) above
# Sequence of DNA polymerase delta core (P49005 whole entry, stated change not applied, further chain): as the sequence (P49005 whole entry, stated change not applied, further chain) above
molecule,measurement,setting,value
DNA polymerase delta core (from UniProt P28340),Kd,PCNA (Homo sapiens) [1],73 nM
DNA polymerase delta holoenzyme (from UniProt P28340),Kd,PCNA (Homo sapiens) [2],7.1 nM
"Cdm1 of Schizosaccharomyces pombe, wild type, purified (natural protein, S. pombe, UniProt O59835 1-160, looked up, Cdm1, fourth subunit of DNA polymerase delta, S. pombe; 160 aa, 18.6 kD; PCR-amplified from genomic DNA; also called wild-type Cdm1; source: E. coli BL21 DE3, purified (bacterial overexpression from pNA716)) MKKRTTQAKKSGQNTNIRDVFPHVVRSNSSQSHIGKKVSSEQSPTPDVTITTKTLDERIKEDDELSKEVEEAWNQIMAERISEPIHCENITKVEFILHHFDTTARYGPYLGMTRMQRWKRAKNFNLNPPETVGKILMLEEADEENRKRESLFYDLQTIPG",binding result,[3],binds
"p12 subunit of human DNA polymerase delta, wild type, purified, GST tag cleaved off (natural protein, UniProt Q9HCU8 1-107, looked up, DNA polymerase delta subunit 4 (p12), human; PCR product from pCOLA-hPold234; also called untagged p12; wild-type p12; source: E. coli BL21 DE3, purified (glutathione-sepharose; GST cleaved by PreScission protease); not shown: GST, N-terminal, cleaved) MGRKRLITDSYPVVKRREGPAGHSKGELAPELGEEPQPRDEEEAELELLRQFDLAWQYGPCTGITRLQRWCRAKQMGLEPPPEVWQVLKTHPGDPRFQCSLWHLYPL",Kd,[4],10000 nM
same,stoichiometry N,[5],2
same,Kd,[6],~146 nM
same,dH,[6],-1.82 kcal/mol
same,stoichiometry N,[6],~0.6
"p12 L104A, Y105A mutant, purified, GST tag cleaved off (natural protein, human, UniProt Q9HCU8 1-107, looked up, DNA polymerase delta subunit 4 (p12), human; PCR product from pCOLA-hPold234; also called PIP-motif p12 mutant; source: E. coli BL21 DE3, purified (glutathione-sepharose; GST cleaved by PreScission protease); not shown: GST, N-terminal, cleaved) MGRKRLITDSYPVVKRREGPAGHSKGELAPELGEEPQPRDEEEAELELLRQFDLAWQYGPCTGITRLQRWCRAKQMGLEPPPEVWQVLKTHPGDPRFQCSLWHAAPL",stoichiometry N,[5],2
